In PMC5424160 (2017):

Molecular target: GST-CDK9 (Homo sapiens (Human), UniProt P50750)
Assay: GST pull-down

Chain of GST-CDK9 (P50750 whole entry): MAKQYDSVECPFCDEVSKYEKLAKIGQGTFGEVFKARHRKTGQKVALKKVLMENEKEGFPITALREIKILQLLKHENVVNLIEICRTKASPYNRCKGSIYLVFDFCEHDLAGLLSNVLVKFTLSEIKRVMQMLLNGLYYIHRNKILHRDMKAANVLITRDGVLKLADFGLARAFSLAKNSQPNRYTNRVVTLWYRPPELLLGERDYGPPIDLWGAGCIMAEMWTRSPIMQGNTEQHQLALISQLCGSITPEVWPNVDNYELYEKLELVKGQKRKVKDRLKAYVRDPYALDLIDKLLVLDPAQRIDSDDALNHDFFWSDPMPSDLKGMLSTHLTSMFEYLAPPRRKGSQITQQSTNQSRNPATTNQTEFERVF

binding result: no binding
B1: His-Menin (protein)
chain: MGLKAAQKTLFPLRSIDDVVRLFAAELGREEPDLVLLSLVLGFVEHFLAVNRVIPTNVPELTFQPSPAPDPPGGLTYFPVADLSIIAALYARFTAQIRGAVDLSLYPREGGVSSRELVKKVSDVIWNSLSRSYFKDRAHIQSLFSFITGTKLDSSGVAFAVVGACQALGLRDVHLALSEDHAWVVFGPNGEQTAEVTWHGKGNEDRRGQTVNAGVAERSWLYLKGSYMRCDRKMEVAFMVCAINPSIDLHTDSLELLQLQQKLLWLLYDLGHLERYPMALGNLADLEELEPTPGRPDPLTLYHKGIASAKTYYRDEHIYPYMYLAGYHCRNRNVREALQAWADTATVIQDYNYCREDEEIYKEFFEVANDVIPNLLKEAASLLEAGEERPGEQSQGTQSQGSALQDPECFAHLLRFYDGICKWEEGSPTPVLHVGWATFLVQSLGRFEGQVRQKVRIVSREAEAAEAEEPWGEEAREGRRRGPRRESKPEEPPPPKKPALDKGLGTGQGAVSGPPRKPPGTVAGTARGPEGGSTAQVPAPTASPPPEGPVLTFQSEKMKGMKELLVATKINSSAIKLQLTAQSQVQMKKQKVSTPSDYTLSFLKRQRKGL
